We go through 37 sequences from the supplement of paper PMC7877785.

± gives the uncertainty stated by the source.

This data set can be described thus: self-splicing fitness, log relative to wild type (ln ratio); higher = more splicing; Tetrahymena group I intron in knt gene, E. coli kanamycin selection, DiMSum; sequences stand for … in CUCUCU…GGAGGGAAAAGUUAUCAGGCAUGCACCUGGUAGCUAGUCUUUAAACCAAUAGAUUGCAUCGGUUUAAAAGGCAAGACCGUCAAAUUGCGGGAAAGGGGUCAACAGCCGUUCAGUACCAAGUCUCAGGGGAAACUUUGAGAUGGCCUUGCAAAGGGUAUGGUAAUAAGCUGACGGACAUGGUCCUAACCACGCAGCCAAGUCCUAAGUCAACAGAUCUUCUGUUGAUAUGGAUGCAGUUCACAGACUAAAUGUCGGUCGGGGAAGAUGUAUUCUUCUCAUAAGAUAUAGUCGGACCUCUCCUUAAUGGGAGCUAGCGGAUGAAGUGAUGCAACACUGGAGCCGCUGGGAACUAAUUUGUAUGCGAAAGUAUAUUGAUUAGUUUUGGAGUACUCGUGGUCG
In a few lines: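 Colonies from six replicate transformations of E. coli BL21(DE3) were pooled and amplicon-sequenced on an Illumina HiSeq 2500. The library placed an intron with all eight P1ex-region nucleotides randomised inside the knt kanamycin-resistance gene on pET-22b(+), and cells grew overnight at 37°C or 30°C on LB agar with or without 25 μg/mL kanamycin (plus 100 μg/mL carbenicillin, 50 μM IPTG, 0.2% rhamnose). Fitness is the DiMSum error-weighted combination of wild-type-normalised replicate fold changes, kanamycin versus none.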

For the sequence UAAUAGCAAUAUUACGCUUU, the “self-splicing fitness (ln)” value is -3.54 ± 0.44 (30 °C) and -1.5 ± 0.2 (37 °C).
Taken in the same sequence, the figures for AAGUAGCAAUAUUACGCCGU were -1.94 ± 0.19 and -0.462 ± 0.19.
Taken in the same sequence, the figures for AGACAGCAAUAUUACGACUA were -0.888 ± 0.092 and -0.383 ± 0.088.
Taken in the same sequence, the figures for ACCCAGCAAUAUUACGCUUG were -3.38 ± 0.11 and -2.43 ± 0.12.
For GGUAAGCAAUAUUACGGAAC, the “self-splicing fitness (ln)” value is -1.55 ± 0.17 (30 °C) and -0.543 ± 0.21 (37 °C).
As for CCAUAGCAAUAUUACGUGCG, the “self-splicing fitness (ln)” value runs as follows: (30 °C) -2.49 ± 0.15; (37 °C) -0.772 ± 0.15.
UAUCAGCAAUAUUACGGCCA: the “self-splicing fitness (ln)” value reads like this: (30 °C) 0.201 ± 0.12; (37 °C) 0.167 ± 0.11.
Taken in the same sequence, the figures for CGUUAGCAAUAUUACGCCUC were -3.03 ± 0.49 and -2.48 ± 0.32.
Taken in the same sequence, the figures for CGUUAGCAAUAUUACGGUAA were -1.58 ± 0.26 and -0.129 ± 0.28.
Taken in the same sequence, the figures for GCAUAGCAAUAUUACGGCUA were -1.16 ± 0.069 and -0.431 ± 0.069.
Regarding CCCCAGCAAUAUUACGGGCU, the “self-splicing fitness (ln)” value runs as follows: (30 °C) -3.75 ± 0.17; (37 °C) -2.32 ± 0.17.
Taken in the same sequence, the figures for ACAAAGCAAUAUUACGCAAC were -2.37 ± 0.17 and -0.412 ± 0.17.
Taken in the same sequence, the figures for CUCAAGCAAUAUUACGCGCC were -1.95 ± 0.32 and -1.15 ± 0.26.
Taken in the same sequence, the figures for UAAAAGCAAUAUUACGGCAA were -0.166 ± 0.1 and -0.176 ± 0.1.
In the case of AAGAAGCAAUAUUACGCCAU, the “self-splicing fitness (ln)” value reads like this: (30 °C) -2.82 ± 0.24; (37 °C) -2.62 ± 0.27.
Taken in the same sequence, the figures for CAACAGCAAUAUUACGUAUG were -2.88 ± 0.12 and -1.35 ± 0.1.
Taken in the same sequence, the figures for GUGAAGCAAUAUUACGCAAC were -2.59 ± 0.17 and -2.08 ± 0.22.
Taken in the same sequence, the figures for GAACAGCAAUAUUACGACGC were -0.0786 ± 0.067 and 0.151 ± 0.088.
Take UAUAAGCAAUAUUACGAACA: the “self-splicing fitness (ln)” value runs as follows: (30 °C) -0.73 ± 0.15; (37 °C) -0.241 ± 0.21.
Take UAUCAGCAAUAUUACGUGAC: the “self-splicing fitness (ln)” value reads like this: (30 °C) -0.555 ± 0.1; (37 °C) -1.45 ± 0.15.
Taken in the same sequence, the figures for CCCGAGCAAUAUUACGGAUA were -3.04 ± 0.22 and -2.89 ± 0.27.
Taken in the same sequence, the figures for GAGAAGCAAUAUUACGACCG were -0.945 ± 0.32 and -0.457 ± 0.27.
Taken in the same sequence, the figures for UAUAAGCAAUAUUACGUUAA were -2.59 ± 0.15 and -1.5 ± 0.14.
For CAGAAGCAAUAUUACGGUCA, the “self-splicing fitness (ln)” value is -1.54 ± 0.13 (30 °C) and -1.15 ± 0.097 (37 °C).
Taken in the same sequence, the figures for UAACAGCAAUAUUACGCAGG were -2.5 ± 0.09 and -0.402 ± 0.08.
CACUAGCAAUAUUACGACGC: the “self-splicing fitness (ln)” value (30 °C) is -2.52 ± 0.12 and the “self-splicing fitness (ln)” value (37 °C) was -1.02 ± 0.13.
Taken in the same sequence, the figures for AACAAGCAAUAUUACGCAGG were -2.67 ± 0.11 and -1.49 ± 0.098.
CUAUAGCAAUAUUACGGUUA: the “self-splicing fitness (ln)” value by setting is: (30 °C) -2.91 ± 0.2; (37 °C) -2.84 ± 0.19.
Taken in the same sequence, the figures for ACUUAGCAAUAUUACGUUAC were -3.55 ± 0.26 and -2.55 ± 0.38.
In the case of UUCAAGCAAUAUUACGUUCG, the “self-splicing fitness (ln)” value (30 °C) was -1.96 ± 0.12 and the “self-splicing fitness (ln)” value (37 °C) is -1.44 ± 0.12.
Taken in the same sequence, the figures for UCGAAGCAAUAUUACGCCAA were -2.4 ± 0.27 and -2.2 ± 0.37.
In the case of CUGUAGCAAUAUUACGCCGG, the “self-splicing fitness (ln)” value was -2.3 ± 0.2 (30 °C) and -0.642 ± 0.19 (37 °C).
Taken in the same sequence, the figures for CUCUAGCAAUAUUACGAUCA were -2.28 ± 0.23 and -2.58 ± 0.33.
As for UUCGAGCAAUAUUACGGAUA, the “self-splicing fitness (ln)” value (30 °C) was -2.76 ± 0.28 and the “self-splicing fitness (ln)” value (37 °C) was -2.08 ± 0.25.
Taken in the same sequence, the figures for UUGCAGCAAUAUUACGCUAU were -2.99 ± 0.25 and -1.16 ± 0.17.
Consider AAGCAGCAAUAUUACGAACU, for which the “self-splicing fitness (ln)” value reads like this: (30 °C) -0.292 ± 0.07; (37 °C) -1 ± 0.069.
Taken in the same sequence, the figures for CGUGAGCAAUAUUACGAGGA were -3.04 ± 0.39 and -1.65 ± 0.33.
